Reference: the supplement of paper PMC9732359
± gives the uncertainty stated by the source.

Assay: protein stability index of a GFP-peptide fusion (yeast GPS) (PSI 1-4); higher = more stable; sorted into four equal gates, so the index is relative within each strain
How it was run: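 Peptides tiling yeast proteins in 17-residue segments were fused downstream of GFP, with Cherry expressed from the same plasmid. As a pooled library in yeast, mid-log cultures grown in leucine-free medium were sorted into four equal gates by GFP/Cherry fluorescence ratio. Gate plasmids were PCR-amplified and Illumina-sequenced, and barcodes linked reads to strains. Each peptide received a protein stability index equal to the sum of each gate's read frequency times its gate number.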

Sequence	protein stability index (doa10∆)	protein stability index (pdr5∆)	protein stability index (san1∆)	protein stability index (ubr1∆)
TPDASKPSFSFGVPNSS [YLR335W/NUP2]	2.92 ± 0.088	3.14 ± 0.086	3.07 ± 0.068	2.94 ± 0.072
TPDDDEIDVENHDRINI [RPN8]	3.37 ± 0.26	3.5 ± 0.25	2.75 ± 0.17	2.68 ± 0.16
TPGLTFNAIDLARHLPA [RPC82]	2.71 ± 0.069	2.73 ± 0.061	2.77 ± 0.056	3.21 ± 0.075
TPIAGRFTPGSFTNYIT [RPS0A]	3.01 ± 0.11	2.99 ± 0.072	2.97 ± 0.082	3.16 ± 0.1
TPLSIKIMVAEWYLSHL [SRB8]	2.83 ± 0.084	2.59 ± 0.095	2.18 ± 0.092	2.5 ± 0.063
TPSFSFGKTTANLPANS [YLR335W/NUP2]	2.84 ± 0.069	2.96 ± 0.1	3.01 ± 0.13	3.19 ± 0.054
TPSNIRSLCEVLVYDDK [RPC34]	1.7 ± 0.077	1.84 ± 0.078	1.26 ± 0.11	1.59 ± 0.086
TQAAEFLSPYISTHLKT [IRR1]	1.96 ± 0.039	2.32 ± 0.059	2.03 ± 0.073	2.21 ± 0.043
TQHEEEEEQDTGESEES [IRR1]		3.29 ± 0.1	3.26 ± 0.092	3.39 ± 0.15
TQLQICLDQMTEQFCAT [SRB7]	2.74 ± 0.063	2.88 ± 0.065	2.54 ± 0.08	2.52 ± 0.052
TQPKATSTGTTIVGVKF [PUP1]	3.48 ± 0.12	3.52 ± 0.1	3.28 ± 0.1	3.03 ± 0.091
TQQAVNLEKNYLAKLSK [IRR1]	3.06 ± 0.27	3.34 ± 0.23		2.91 ± 0.14
TQRIMTNVIAFAFWNLL [YLR018C/POM34]	1.81 ± 0.069	2.13 ± 0.058	1.74 ± 0.16	1.58 ± 0.027
TQTGQNTGPSTGGLFGA [YGL172W/NUP49]	3.47 ± 0.11	3.34 ± 0.094	2.93 ± 0.14	3.52 ± 0.13
TRAAKIAPRPLDLLRPV [RPL13A]	2.95 ± 0.091	3.27 ± 0.11	3.15 ± 0.081	2.89 ± 0.054
TRAKIGGLNDPRLGSID [RPO21]	3.03 ± 0.11	2.22 ± 0.077	2.58 ± 0.098	2.37 ± 0.083
TRALQISMNAPVFVDLE [RPO26]				3 ± 0.19
TRGGASALIENNLFRII [YJL039C/NUP192]	2.48 ± 0.048	2.41 ± 0.052	2.41 ± 0.052	2.7 ± 0.041
TRISSQFEKSRKVSGPR [RET1]	2.94 ± 0.27	2.92 ± 0.18	2.92 ± 0.098	2.75 ± 0.2
TRLPAFERPAVKEEKED [RPC53]	2.87 ± 0.25	2.71 ± 0.23	3.21 ± 0.085	3.46 ± 0.16
TRNPDAPKGSTDPKELY [RPC40]	3.11 ± 0.23	3.63 ± 0.29		3.48 ± 0.16
TRQASDLASSKEVLAKI [RPN5]	2.92 ± 0.11	2.96 ± 0.06	2.99 ± 0.077	2.85 ± 0.076
TRVNAQLESYEYMVQYI [RRI1]	3.2 ± 0.059	3.23 ± 0.073	3.42 ± 0.058	3.22 ± 0.076
TSDPVMHKQLAYILAAQ [RPN1]	1.68 ± 0.15	2.52 ± 0.17		2.1 ± 0.11
TSFDIKREGRNELQEER [POP6]	3.46 ± 0.12	3.02 ± 0.15	3.73 ± 0.11	3.27 ± 0.07
TSIEKSSEILSYLSNSL [YML103C/NUP188]	2.21 ± 0.072	2.57 ± 0.076	1.49 ± 0.1	2.14 ± 0.046

Sequence	protein stability index (doa10∆)	protein stability index (pdr5∆)	protein stability index (san1∆)	protein stability index (ubr1∆)
TSLITAVYGPRSIRGSF [MTR3]	2.72 ± 0.073	2.72 ± 0.086	2.55 ± 0.074	2.28 ± 0.058
TSLSSKDLSNYRKTEGI [YMR153W/NUP53]	3.12 ± 0.088	3.25 ± 0.085	3.24 ± 0.062	3.35 ± 0.043
TSLTSIKWENAFVSVYS [PRP8]	2.94 ± 0.07	2.62 ± 0.07	3 ± 0.08	2.67 ± 0.038
TSPFGGARPGRVARRNA [RPS9A]	2.8 ± 0.15	2.84 ± 0.28	3.02 ± 0.15	3.28 ± 0.1
TSPIDIREKVAKQALDL [SNF2]	3.28 ± 0.14	3.17 ± 0.19	2.81 ± 0.13	2.69 ± 0.15
TSQMDLARDTPSANNSS [RRP4]	1.86 ± 0.042	1.46 ± 0.064	1.91 ± 0.077	1.51 ± 0.045
TSQNPQRDAEISQPKSM [BRR2]	3.27 ± 0.11	3.04 ± 0.27	3.11 ± 0.13	2.88 ± 0.11
TSRTIVRNVKGPVREND [RPS28A]	3.4 ± 0.11	3.16 ± 0.1	3.59 ± 0.11	3.27 ± 0.086
TTALLKDEEIEKLLQQD [MED8]	3.29 ± 0.13	3.13 ± 0.13	3.05 ± 0.23	3.59 ± 0.14
TTAVEDEDDDLDEDDVN [RPB4]	3.5 ± 0.11	3.27 ± 0.1	3.55 ± 0.15	3.3 ± 0.093
TTDANGSKENYQELGSL [MED2]	2.86 ± 0.097	3.09 ± 0.081	3.15 ± 0.049	2.9 ± 0.075
TTDSLTKVLQADLPGSY [YMR129W/POM152]	2.38 ± 0.082	2.79 ± 0.14	2.49 ± 0.1	2.43 ± 0.078
TTEMLDKLMVTSIRSTP [MED6]	2.27 ± 0.14	2.45 ± 0.12	2.81 ± 0.27	2.53 ± 0.089
TTIFVKSTTPYVSALKR [POP7]	1.82 ± 0.07	2.27 ± 0.077	2.27 ± 0.076	1.97 ± 0.056
TTLHGPGFQLPNRITLT [SRB8]	2.9 ± 0.099	2.84 ± 0.1	2.74 ± 0.068	2.89 ± 0.061
TTSRFSKQVTDYYQSIY [FAS2]	2.77 ± 0.056	2.87 ± 0.071	2.47 ± 0.089	2.59 ± 0.05
TTTNTDQNNATMGEETA [SNF12]	3.3 ± 0.076	3.37 ± 0.11	3.4 ± 0.076	3.21 ± 0.1
TTVIGIRGSDQAIPKFQ [RPN2]		2.74 ± 0.23		
TTVSNDLENSPLKTELE [SSN2]	3.05 ± 0.13	3.16 ± 0.096	3.16 ± 0.072	3.19 ± 0.082
TVAVMSYSGYDIEDALV [RET1]	2.7 ± 0.16	2.15 ± 0.11	1.97 ± 0.16	2.83 ± 0.072
TVDVSSPTENGVFDPAS [RPL22A]	3.06 ± 0.054	3.17 ± 0.064	2.69 ± 0.057	2.87 ± 0.042
TVHKTFEGNVATKAING [PRP8]	2.85 ± 0.08	2.22 ± 0.062	1.85 ± 0.065	2.71 ± 0.062
TVIEGVKEESQPDENTK [SWI3]	3.13 ± 0.17	3.28 ± 0.15	2.74 ± 0.12	3 ± 0.089
TVIRGNSIISLEALDAI [SMX2]	2.79 ± 0.075	2.43 ± 0.09	2.15 ± 0.11	2.57 ± 0.055
TVLFFIGVRCYEAYPNT [FAS1]	1.21 ± 0.054	1.23 ± 0.049	1.66 ± 0.1	1.8 ± 0.043
